Test results: patent publication US20180346602A1

How the values were obtained:
[1] = biological target: anti-VEGF/ANG2 antibody (IgG1 subclass with mutations P329G/L234A/L235A/I253A/H310A/H435A) [IgG part: P01857]; assay: sandwich ELISA assay E; tracer M1.7.10-Dig; analyte 1) at 50 ng/mL
[2] = biological target: anti-VEGF/ANG2 antibody (IgG1 subclass with mutations P329G/L234A/L235A/I253A/H310A/H435A) [IgG part: P01857]; assay: sandwich ELISA assay E; tracer M1.7.10-Dig; analyte 1) at 6.25 ng/mL
[3] = biological target: anti-VEGF/ANG2 antibody (IgG1 subclass with mutations P329G/L234A/L235A) [IgG part: P01857]; assay: sandwich ELISA assay E; tracer M1.7.10-Dig; analyte 2) at 1.5625 ng/mL
[4] = biological target: anti-VEGF/ANG2 antibody (IgG1 subclass with mutations P329G/L234A/L235A/I253A/H310A/H435A) [IgG part: P01857]; assay: sandwich ELISA assay E; tracer M1.7.10-Dig; analyte 1) at 0 ng/mL (blank)
[5] = biological target: anti-Dig antibody (IgG1 subclass with mutations P329G/L234A/L235A) [IgG part: P01857]; assay: sandwich ELISA assay D; tracer M1.7.10-Dig; analyte conc. not printed (row 1 of 8)
[6] = biological target: anti-Dig antibody (IgG1 subclass with mutations P329G/L234A/L235A) [IgG part: P01857]; assay: sandwich ELISA assay D; tracer M1.7.10-Dig; analyte conc. not printed (row 3 of 8)
[7] = biological target: anti-Dig antibody (IgG1 subclass with mutations P329G/L234A/L235A) [IgG part: P01857]; assay: sandwich ELISA assay D; tracer M1.7.10-Dig; analyte conc. not printed (row 4 of 8)
[8] = biological target: anti-Dig antibody (IgG1 subclass with mutations P329G/L234A/L235A) [IgG part: P01857]; assay: sandwich ELISA assay D; tracer M1.7.10-Dig; analyte conc. not printed (row 5 of 8)
[9] = biological target: anti-Dig antibody (IgG1 subclass with mutations P329G/L234A/L235A) [IgG part: P01857]; assay: sandwich ELISA assay D; tracer M1.19.31-Dig; analyte conc. not printed (row 1 of 8)
[10] = biological target: anti-Dig antibody (IgG1 subclass with mutations P329G/L234A/L235A) [IgG part: P01857]; assay: sandwich ELISA assay D; tracer M1.19.31-Dig; analyte conc. not printed (row 3 of 8)
[11] = biological target: anti-Dig antibody (IgG1 subclass with mutations P329G/L234A/L235A) [IgG part: P01857]; assay: sandwich ELISA assay D; tracer M1.19.31-Dig; analyte conc. not printed (row 4 of 8)
[12] = biological target: anti-Dig antibody (IgG1 subclass with mutations P329G/L234A/L235A) [IgG part: P01857]; assay: sandwich ELISA assay D; tracer M1.19.31-Dig; analyte conc. not printed (row 8 of 8)
[13] = biological target: target antibodies; assay: depletion of target antibody from sample; concentration before depletion 1.00 µg/mL
[14] = biological target: target antibodies; assay: depletion of target antibody from sample; concentration before depletion 3.00 µg/mL
[15] = biological target: target antibodies; assay: depletion of target antibody from sample; concentration before depletion 10.00 µg/mL
[16] = biological target: target antibodies; assay: depletion of target antibody from sample; concentration before depletion 30.00 µg/mL
[17] = biological target: anti-VEGF/ANG2 antibody (wild-type IgG1 subclass) (human) [IgG part: P01857]; assay: sandwich ELISA assay C; capture on SA plate; tracer FcγRI-Dig; analyte 2 ng/mL
[18] = biological target: anti-VEGF/ANG2 antibody (wild-type IgG1 subclass) (human) [IgG part: P01857]; assay: sandwich ELISA assay C; capture on SA plate; tracer FcγRI-Dig; analyte 3 ng/mL
[19] = biological target: anti-VEGF/ANG2 antibody (wild-type IgG1 subclass) (human) [IgG part: P01857]; assay: sandwich ELISA assay C; capture on SA plate; tracer FcγRI-Dig; analyte 13 ng/mL
[20] = biological target: anti-VEGF/ANG2 antibody (wild-type IgG1 subclass) (human) [IgG part: P01857]; assay: sandwich ELISA assay C; capture on SA plate; tracer FcγRI-Dig; analyte 25 ng/mL
[21] = biological target: anti-VEGF/ANG2 antibody (wild-type IgG1 subclass) (human) [IgG part: P01857]; assay: sandwich ELISA assay C; capture on SA plate; tracer FcγRI-Dig; analyte 50 ng/mL
[22] = biological target: anti-VEGF/ANG2 antibody (wild-type IgG1 subclass) (human) [IgG part: P01857]; assay: sandwich ELISA assay B; capture on SA plate; tracer M1.7.10-Dig; analyte 3 ng/mL
[23] = biological target: anti-VEGF/ANG2 antibody (wild-type IgG1 subclass) (human) [IgG part: P01857]; assay: sandwich ELISA assay B; capture on SA plate; tracer M1.7.10-Dig; analyte 6 ng/mL
[24] = biological target: anti-VEGF/ANG2 antibody (wild-type IgG1 subclass) (human) [IgG part: P01857]; assay: sandwich ELISA assay B; capture on SA plate; tracer M1.7.10-Dig; analyte 100 ng/mL
[25] = biological target: anti-VEGF/ANG2 antibody (wild-type IgG1 subclass) (human) [IgG part: P01857]; assay: sandwich ELISA assay C; capture on SA plate; tracer FcγRI-Dig; analyte 0 ng/mL (blank)

B1: anti-variant (human) Fc-region antibody M1.3.17 (antibody, V domains shown)
VH: EVKLLESGGGLVQPGGSLKLSCAASGIDFRRYWMNWVRQAPGKGLEWIGEIDPDSSTINYTPSLKDKFIISRDNAKNTMYLQMRKVRSEDTALYYCARPYDYGAWFAYWGQGTLVTVSA
VL: QAVVTQESALTTSPGETVTLTCRSTTGAVTTSNYANWVQEKPDHLFTGLIGGTNKRAPGVPARFSGSLIGDKAALTITGAQTEDEAIYFCALWYSDHWVFGGGTKLTVL
Q: Which results are given for B1?
A: signal [OD405 nm] [1]: 1.95 OD405 nm; signal [OD405 nm] [2]: 0.677 OD405 nm; signal [OD405 nm] [3]: 0.187 OD405 nm; signal [OD405 nm] [4]: 0.027 OD405 nm; signal 10% cynomolgus serum [OD405 nm] [5]: 2.12 OD405 nm; signal 10% human serum [OD405 nm] [5]: 2.66 OD405 nm; signal buffer [OD405 nm] [5]: 0.053 OD405 nm; signal 10% cynomolgus serum [OD405 nm] [6]: 0.485 OD405 nm; signal 10% human serum [OD405 nm] [6]: 2.51 OD405 nm; signal buffer [OD405 nm] [6]: 0.037 OD405 nm; signal 10% cynomolgus serum [OD405 nm] [7]: 0.194 OD405 nm; signal 10% human serum [OD405 nm] [7]: 2.48 OD405 nm; signal buffer [OD405 nm] [7]: 0.032 OD405 nm; signal 10% cynomolgus serum [OD405 nm] [8]: 0.096 OD405 nm; signal 10% human serum [OD405 nm] [8]: 2.49 OD405 nm; signal buffer [OD405 nm] [8]: 0.031 OD405 nm; signal 10% cynomolgus serum [OD405 nm] [9]: 1.87 OD405 nm; signal 10% human serum [OD405 nm] [9]: 2.58 OD405 nm; signal buffer [OD405 nm] [9]: 0.05 OD405 nm; signal 10% cynomolgus serum [OD405 nm] [10]: 0.357 OD405 nm; signal 10% human serum [OD405 nm] [10]: 1.84 OD405 nm; signal buffer [OD405 nm] [10]: 0.04 OD405 nm; signal 10% cynomolgus serum [OD405 nm] [11]: 0.162 OD405 nm; signal 10% human serum [OD405 nm] [11]: 1.73 OD405 nm; signal buffer [OD405 nm] [11]: 0.037 OD405 nm; signal 10% cynomolgus serum [OD405 nm] [12]: 0.077 OD405 nm; signal 10% human serum [OD405 nm] [12]: 1.8 OD405 nm; signal buffer [OD405 nm] [12]: 0.036 OD405 nm; concentration after depletion [13]: 0.0007 µg/mL; recovery [%] [13]: 0.067%; concentration after depletion [14]: 0.0023 µg/mL; recovery [%] [14]: 0.078%; concentration after depletion [15]: 0.0017 µg/mL; recovery [%] [15]: 0.017%; concentration after depletion [16]: 0.008 µg/mL; recovery [%] [16]: 0.027%

B2: anti-variant (human) Fc-region antibody M1.7.24 (antibody, V domains shown)
VH: EVKLLESGGGLVQPGGSLKLSCAASGFDFSRYWMNWVRQAPGKGLEWIGEITPDSSTINYTPSLKDKFIISRDNAKNTLYLQMIKVRSEDTALYYCVRPYDYGAWFASWGQGTLVTVSA
VL: QAVVTQESALTTSPGETVTLTCRSSTGAVTTSNYANWVQEKPDHLFTGLIGGTNKRAPGVPARFSGSLIGDKAALTITGAQTEDEAIYFCALWYSNHWVFGGGTKLTVL
Q: How did the signal [OD405 nm] [1] turn out when B2 was run?
A: 1.94 OD405 nm

Q: And the signal [OD405 nm] [2]?
A: 0.64 OD405 nm

Q: And the signal [OD405 nm] [3]?
A: 0.172 OD405 nm

Q: What about the signal [OD405 nm] [4] of the same binder?
A: 0.025 OD405 nm

Q: And the signal [OD405 nm] [17]?
A: 0.058 OD405 nm

Q: And the signal [OD405 nm] [18]?
A: 0.053 OD405 nm

Q: And the signal [OD405 nm] [19]?
A: 0.057 OD405 nm

Q: And the signal [OD405 nm] [20]?
A: 0.063 OD405 nm

Q: What about the signal [OD405 nm] [21] of the same binder?
A: 0.066 OD405 nm

Q: What about the signal [OD405 nm] [22] of the same binder?
A: 0.033 OD405 nm

Q: What about the signal [OD405 nm] [23] of the same binder?
A: 0.038 OD405 nm

Q: And the signal [OD405 nm] [24]?
A: 0.047 OD405 nm

Q: And the signal 10% cynomolgus serum [OD405 nm] [5]?
A: 2.37 OD405 nm

Q: What about the signal 10% human serum [OD405 nm] [5] of the same binder?
A: 2.74 OD405 nm

Q: And the signal buffer [OD405 nm] [5]?
A: 0.062 OD405 nm

Q: And the signal 10% cynomolgus serum [OD405 nm] [6]?
A: 0.575 OD405 nm

Q: What about the signal 10% human serum [OD405 nm] [6] of the same binder?
A: 2.48 OD405 nm

Q: And the signal buffer [OD405 nm] [6]?
A: 0.039 OD405 nm

Q: What about the signal 10% cynomolgus serum [OD405 nm] [7] of the same binder?
A: 0.223 OD405 nm

Q: And the signal 10% human serum [OD405 nm] [7]?
A: 2.46 OD405 nm

Q: And the signal buffer [OD405 nm] [7]?
A: 0.034 OD405 nm

Q: What about the signal 10% cynomolgus serum [OD405 nm] [8] of the same binder?
A: 0.094 OD405 nm

Q: And the signal 10% human serum [OD405 nm] [8]?
A: 2.41 OD405 nm

Q: And the signal buffer [OD405 nm] [8]?
A: 0.031 OD405 nm

Q: And the signal 10% cynomolgus serum [OD405 nm] [9]?
A: 2.25 OD405 nm

Q: What about the signal 10% human serum [OD405 nm] [9] of the same binder?
A: 2.5 OD405 nm

Q: And the signal buffer [OD405 nm] [9]?
A: 0.054 OD405 nm

Q: And the signal 10% cynomolgus serum [OD405 nm] [10]?
A: 0.438 OD405 nm

Q: And the signal 10% human serum [OD405 nm] [10]?
A: 1.6 OD405 nm

Q: And the signal buffer [OD405 nm] [10]?
A: 0.045 OD405 nm

Q: What about the signal 10% cynomolgus serum [OD405 nm] [11] of the same binder?
A: 0.173 OD405 nm

Q: And the signal 10% human serum [OD405 nm] [11]?
A: 1.43 OD405 nm

Q: And the signal buffer [OD405 nm] [11]?
A: 0.037 OD405 nm

Q: What about the signal 10% cynomolgus serum [OD405 nm] [12] of the same binder?
A: 0.035 OD405 nm

Q: What about the signal 10% human serum [OD405 nm] [12] of the same binder?
A: 1.42 OD405 nm

Q: And the signal buffer [OD405 nm] [12]?
A: 0.033 OD405 nm

Q: What about the signal [OD405 nm] [25] of the same binder?
A: 0.073 OD405 nm

B3: anti-AAA variant Fc-region antibody M1.6.22 (antibody, V domains shown)
VH: EVQLVESGGDLVKPGGSLKLSCAASGFTFSSYGMSWVRQTPDKRLEWVATISSGGSYIYYPDSVKGRFTISRDNAKNTLYLQMSSLKSEDTAMYYCARLGMITTGYAMDYWGQGTSVTVSS
VL: DVLMTQTPLSLPVSLGDQASISCRSSQTIVHSTGHTYLEWFLQKPGQSPKLLIYKVSNRFSGVPDRFSGSGSGTDFTLKISRVEAEDLGVYYCFQGSHVPYTFGGGTKLEIK
Q: What does the source list for B3?
A: signal [OD405 nm] [17]: 0.077 OD405 nm; signal [OD405 nm] [18]: 0.069 OD405 nm; signal [OD405 nm] [19]: 0.07 OD405 nm; signal [OD405 nm] [20]: 0.066 OD405 nm; signal [OD405 nm] [21]: 0.067 OD405 nm; signal [OD405 nm] [22]: 0.037 OD405 nm; signal [OD405 nm] [23]: 0.039 OD405 nm; signal [OD405 nm] [24]: 0.061 OD405 nm; concentration after depletion [13]: 0.0003 µg/mL; recovery [%] [13]: 0.031%; concentration after depletion [14]: 0.0023 µg/mL; recovery [%] [14]: 0.008%; concentration after depletion [15]: 0.0005 µg/mL; recovery [%] [15]: 0.005%; concentration after depletion [16]: 0.0054 µg/mL; recovery [%] [16]: 0.018%; signal [OD405 nm] [25]: 0.069 OD405 nm
